{
  "source": "IntAct's records for PubMed 16803958",
  "parents": {"B1": {"name": "Protein CBFA2T1 (Homo sapiens), Q06455-4 (parent)", "chain": "MPDSPVDVKTQSRLTPPTMPPPPTTQGAPRTSSFTPTTLTNGTSHSPTALNGAPSPPNGFSNGPSSSSSSSLANQQLPPACGARQLSKLKRFLTTLQQFGNDISPEIGERVRTLVLGLVNSTLTIEEFHSKLQEATNFPLRPFVIPFLKANLPLLQRELLHCARLAKQNPAQYLAQHEQLLLDASTTSPVDSSELLLDVNENGKRRTPDRTKENGFDREPLHSEHPSKRPCTISPGQRYSPNNGLSYQPNGLPHPTPPPPQHYRLDDMAIAHHYRDSYRHPSHRDLRDRNRPMGLHGTRQEEMIDHRLTDREWAEEWKHLDHLLNCIMDMVEKTRRSLTVLRRCQEADREELNYWIRRYSDAEDLKKGGGSSSSHSRQQSPVNPDPVALDAHREFLHRPASGYVPEEIWKKAEEAVNEVKRQAMTELQKAVSEAERKAHDMITTERAKMERTVAEAKRQAAEDALAVINQQEDSSESCWNCGRKASETCSGCNTARYCGSFCQHKDWEKHHHICGQTLQAQQQGDTPAVSSSVTPNSGAGSPMDTPPAATPRSTTPGTPSTIETTPR"}},
  "data": [
    {"variants_of": "B1", "conditions": "with TCF12, Q99081-3", "values": [
      {"variant": "MPDSPVDVKTQSRLTPPTMPPPPTTQGAPRTSSFTPTTLTNGTSHSPTALNGAPSPPNGFSNGPSSSSSSSLANQQLPPACGARQLSKAKRFLTTLQQFGNDISPEIGERVRTLVLGLVNSTLTIEEFHSKLQEATNFPLRPFVIPFLKANLPLLQRELLHCARLAKQNPAQYLAQHEQLLLDASTTSPVDSSELLLDVNENGKRRTPDRTKENGFDREPLHSEHPSKRPCTISPGQRYSPNNGLSYQPNGLPHPTPPPPQHYRLDDMAIAHHYRDSYRHPSHRDLRDRNRPMGLHGTRQEEMIDHRLTDREWAEEWKHLDHLLNCIMDMVEKTRRSLTVLRRCQEADREELNYWIRRYSDAEDLKKGGGSSSSHSRQQSPVNPDPVALDAHREFLHRPASGYVPEEIWKKAEEAVNEVKRQAMTELQKAVSEAERKAHDMITTERAKMERTVAEAKRQAAEDALAVINQQEDSSESCWNCGRKASETCSGCNTARYCGSFCQHKDWEKHHHICGQTLQAQQQGDTPAVSSSVTPNSGAGSPMDTPPAATPRSTTPGTPSTIETTPR", "note": "[L89A]", "effect of a mutation on the interaction": "decreasing interaction strength"},
      {"variant": "MPDSPVDVKTQSRLTPPTMPPPPTTQGAPRTSSFTPTTLTNGTSHSPTALNGAPSPPNGFSNGPSSSSSSSLANQQLPPACGARQLSKLKRALTTLQQFGNDISPEIGERVRTLVLGLVNSTLTIEEFHSKLQEATNFPLRPFVIPALKANLPLLQRELLHCARLAKQNPAQYLAQHEQLLLDASTTSPVDSSELLLDVNENGKRRTPDRTKENGFDREPLHSEHPSKRPCTISPGQRYSPNNGLSYQPNGLPHPTPPPPQHYRLDDMAIAHHYRDSYRHPSHRDLRDRNRPMGLHGTRQEEMIDHRLTDREWAEEWKHLDHLLNCIMDMVEKTRRSLTVLRRCQEADREELNYWIRRYSDAEDLKKGGGSSSSHSRQQSPVNPDPVALDAHREFLHRPASGYVPEEIWKKAEEAVNEVKRQAMTELQKAVSEAERKAHDMITTERAKMERTVAEAKRQAAEDALAVINQQEDSSESCWNCGRKASETCSGCNTARYCGSFCQHKDWEKHHHICGQTLQAQQQGDTPAVSSSVTPNSGAGSPMDTPPAATPRSTTPGTPSTIETTPR", "note": "[F92A;F147A]", "effect of a mutation on the interaction": "disrupting interaction strength"},
      {"variant": "MPDSPVDVKTQSRLTPPTMPPPPTTQGAPRTSSFTPTTLTNGTSHSPTALNGAPSPPNGFSNGPSSSSSSSLANQQLPPACGARQLSKLKDFLTTLQQFGNDISPEIGERVRTLVLGLVNSTLTIEEFHSKLQEATNFPLRPFVIPFLKANLPLLQRELLHCARLAKQNPAQYLAQHEQLLLDASTTSPVDSSELLLDVNENGKRRTPDRTKENGFDREPLHSEHPSKRPCTISPGQRYSPNNGLSYQPNGLPHPTPPPPQHYRLDDMAIAHHYRDSYRHPSHRDLRDRNRPMGLHGTRQEEMIDHRLTDREWAEEWKHLDHLLNCIMDMVEKTRRSLTVLRRCQEADREELNYWIRRYSDAEDLKKGGGSSSSHSRQQSPVNPDPVALDAHREFLHRPASGYVPEEIWKKAEEAVNEVKRQAMTELQKAVSEAERKAHDMITTERAKMERTVAEAKRQAAEDALAVINQQEDSSESCWNCGRKASETCSGCNTARYCGSFCQHKDWEKHHHICGQTLQAQQQGDTPAVSSSVTPNSGAGSPMDTPPAATPRSTTPGTPSTIETTPR", "note": "[R91D]", "effect of a mutation on the interaction": "disrupting interaction strength"},
      {"variant": "MPDSPVDVKTQSRLTPPTMPPPPTTQGAPRTSSFTPTTLTNGTSHSPTALNGAPSPPNGFSNGPSSSSSSSLANQQLPPACGARQLSKLKRALTTLQQFGNDISPEIGERVRTLVLGLVNSTLTIEEFHSKLQEATNFPLRPFVIPFLKANLPLLQRELLHCARLAKQNPAQYLAQHEQLLLDASTTSPVDSSELLLDVNENGKRRTPDRTKENGFDREPLHSEHPSKRPCTISPGQRYSPNNGLSYQPNGLPHPTPPPPQHYRLDDMAIAHHYRDSYRHPSHRDLRDRNRPMGLHGTRQEEMIDHRLTDREWAEEWKHLDHLLNCIMDMVEKTRRSLTVLRRCQEADREELNYWIRRYSDAEDLKKGGGSSSSHSRQQSPVNPDPVALDAHREFLHRPASGYVPEEIWKKAEEAVNEVKRQAMTELQKAVSEAERKAHDMITTERAKMERTVAEAKRQAAEDALAVINQQEDSSESCWNCGRKASETCSGCNTARYCGSFCQHKDWEKHHHICGQTLQAQQQGDTPAVSSSVTPNSGAGSPMDTPPAATPRSTTPGTPSTIETTPR", "note": "[F92A]", "effect of a mutation on the interaction": "disrupting interaction strength"},
      {"variant": "MPDSPVDVKTQSRLTPPTMPPPPTTQGAPRTSSFTPTTLTNGTSHSPTALNGAPSPPNGFSNGPSSSSSSSLANQQLPPACGARQLSKAKRFLTTLQQFGNDISPEIGERVRTLVLGLVNSTLTIEEFHSKLQEATNFPLDPFVIPFLKANLPLLQRELLHCARLAKQNPAQYLAQHEQLLLDASTTSPVDSSELLLDVNENGKRRTPDRTKENGFDREPLHSEHPSKRPCTISPGQRYSPNNGLSYQPNGLPHPTPPPPQHYRLDDMAIAHHYRDSYRHPSHRDLRDRNRPMGLHGTRQEEMIDHRLTDREWAEEWKHLDHLLNCIMDMVEKTRRSLTVLRRCQEADREELNYWIRRYSDAEDLKKGGGSSSSHSRQQSPVNPDPVALDAHREFLHRPASGYVPEEIWKKAEEAVNEVKRQAMTELQKAVSEAERKAHDMITTERAKMERTVAEAKRQAAEDALAVINQQEDSSESCWNCGRKASETCSGCNTARYCGSFCQHKDWEKHHHICGQTLQAQQQGDTPAVSSSVTPNSGAGSPMDTPPAATPRSTTPGTPSTIETTPR", "note": "[L89A;R141D]", "effect of a mutation on the interaction": "disrupting interaction strength"},
      {"variant": "MPDSPVDVKTQSRLTPPTMPPPPTTQGAPRTSSFTPTTLTNGTSHSPTALNGAPSPPNGFSNGPSSSSSSSLANQQLPPACGARQLSKLKRFLTTAQQFGNDISPEIGERVRTLVLGLVNSTLTIEEFHSKLQEATNFPLRPFVIPFLKANLPLLQRELLHCARLAKQNPAQYLAQHEQLLLDASTTSPVDSSELLLDVNENGKRRTPDRTKENGFDREPLHSEHPSKRPCTISPGQRYSPNNGLSYQPNGLPHPTPPPPQHYRLDDMAIAHHYRDSYRHPSHRDLRDRNRPMGLHGTRQEEMIDHRLTDREWAEEWKHLDHLLNCIMDMVEKTRRSLTVLRRCQEADREELNYWIRRYSDAEDLKKGGGSSSSHSRQQSPVNPDPVALDAHREFLHRPASGYVPEEIWKKAEEAVNEVKRQAMTELQKAVSEAERKAHDMITTERAKMERTVAEAKRQAAEDALAVINQQEDSSESCWNCGRKASETCSGCNTARYCGSFCQHKDWEKHHHICGQTLQAQQQGDTPAVSSSVTPNSGAGSPMDTPPAATPRSTTPGTPSTIETTPR", "note": "[L96A]", "effect of a mutation on the interaction": "decreasing interaction strength"}
    ]}
  ]
}
